In the DeepSol protein solubility set:

test: soluble on expression in E. coli; label from the status in PepcDB or PDB records

Sequence | soluble on expression in E. coli
MRKLFLLAIVLCVWSVVADAQESERRYIEVTGSSEIEVVPDEIHLLIQIKEYWKEEFVPKSKPEDYKTKVPLEWIEKDLRRVLSRAGISDEAIRVQEIGDYWRQKGKEFLIGKQLDIRFTDFEKINAVIKKIDTKGIESMRIGELKHKDLPNYRKQGKIEALKAAREKASYLVEAMGQKLGEVIRIVEPASSYVSPYSLYQAQSNVSMGTAATEQYRVITLRYEMTARFAIELEHHHHHH | soluble
MSKNMQNTSYRKLDVDSFDPEQYDENDETVDTPGLGPDERAVQGFLSSNRLEDALHAALLSPPLKTKDQNVKDRATQLVTKVLQSFKNAEIEATVQKLSIEESDILMKYVYKSMEIGADAAVCQSLLAWHAQLVAKFGHGAIMRVFSGRQRL | soluble
MGSDKIHHHHHHMSLEAPDLLRIRALPLFEAVNDGAFDRLMRGAFLQRFPRGSQLTTQGQPDNFLFVLLEGAIELEGSSSDRESTLALLWPSASLCLASIVLDGPSLMTARTTKGSLILMVPGDAFRQALEEDAGLGRAVAEELAGCFSGAVRSLKNNKLRTARERLVSYLLAQHQRQGGGAVVKLPCRKRVLASLLGMTPENLSRAFASLGPHGVEIDGSTVTLREPEGLAQLARPDPMIDNPIGESFSQAERERRRGGRTAIAAH | not soluble
VAAALGVKPPETATTPEIVVGRPPELCKGCGHRDMFDAINIAIKENADHHVFSDIGCYTLGALPPYNAIHTCVDMGAAITMAKGAADAGLRPAVCVIGDSTFAHSGMTGLLDAVNDRTPVTVIIADNNTTAMTGGQCSSASGSKLVNICIGLGVEEAHIRTIVPLRQHLHENVSVLRDEFAYNGVSVVIAQRECIETAAKKKRRAAASAQ | not soluble
MGSSHHHHHHSSGLVPRGSHMDAETVGRVKRFIQENVFVAANHNGSPLSIKEAPKELSFGARAELPRIHPVASKLLRLMQKKETNLCLSADVSLARELLQLADALGPSICMLKTHVDILNDFTLDVMKELITLAKCHEFLIFEDRKFADIGNTVKKQYEGGIFKIASWADLVNAHVVPGSGVVKGLQEVGLPLHRGCLLIAEMSSTGSLATGDYTRAAVRMAEEHSEFVVGFISGSRVSMKPEFLHLTPGVQLEAGGDNLGQQYNSPQEVIGKRGSDIIIVGRGIISAADRLEAAEMYRKAAWEAYLSRLGV | soluble
MSLIRSKYAFLQKLTRDLKMKSINIGEELEGATPPSVFIGSWNYPKVYAGPMIAPVQEEVEIFDSPERWIPERKTQEEIIDYRLNLVRGKQLVGVRDLDNHLVEKLQEISLSSGAIESEAQFRRKPRGLFFSEEQTPHGPSAVLENFEIENVKWDRELERAYHDTDLRAREAIVELHRKGTPFSAVQKALSVGALGEGKRRKLVPTRWSITACDSTLADHFLERVLEYEPIDTFRVHEFESLKNHYLILLTPSEWQYEWMEAFMKRDGRAMIFSDHETGKGKREYSRVGGCYYSAKMAVLDALDREEKQAGAIILREAYPGYVPLGVFNVRENVKNAMDTEPTMFNDLRGALEFIDSKLKLGLEAFRVRSNLLKELEVSRQTTLDSFFREGHHHHHH | not soluble
MGSDKIHHHHHHMKINTSMLWEDKAKSEVTYTTYLIEKTPDIKNKNPRPAVIICGGGGFFKVTDREKEPVALYFLNKGFQAITLDYTVGKGSGYPKPLYDLAKMLLIVRENAQNWNIDTEKVIFIGFSAGATHSASLANSWNEPFLQKYFDYPGETLKPSLVILSYPLLDFNYQYEQVSVDPDNQMPTKLSPMPKIDFLTGALKTVVGKELTTENLKEYSPIEHISTATVPTFIWGMQDDDCIYNNALLEYAKRLKDNGILYELHMFALGEHGLSVINSNTQAKFSDYEELGIWKKLCIQFINRVLHLK | not soluble
MGSDKIHHHHHHMTNPISLKDPLKLPCGAVIKNRLIKSAMSDSLADGEGNATNLQARLYERWAKSGLGLSVIGEVQVDPRFPEKPGNLVLADGMDLAALRELTSRAAINGAHIWPQLSHAGGLSHLPISQPKGPSALNISQFQCAGMSIDEIYQLPDMYAKSAMLAKDVGFTGVQIHAGHGFLLSQFLSPLFNHRQDQYGGSIEARCRIIVEIIAKVRSAVGDSFPIGIKINSTDQLEGGLTQEDALAAIRILDQTSLDLIEISGGSYFPGAKSSSDSSTKGPYFAEFAATAKRLSNVPIAVTGGFKTYAQALKVIESGAVDFVGLARALVITPELAKDWLIGTATAPSFPRFKAPPQGGITAWFTMLLTAIANDSEESFELELLPALHLYEELDDARCDKWMQKFEIK | not soluble
SSMTSRYKRSIESATNVATELSKGNYDARTYGGYIRRSDKLGHAMNSLAIDLMEMTRTQEMQRDRLLTVIENIGSGLIMIDGRGFINLVNRSYAKQFHINPNHMLRRLYHDAFEHEEVIQLVEDIFMTETKKCKLLRLPIKIERRYFEVDGVPIMGPDDEWKGIVLVFHDMTETKKLEQMRKDFVANVSHELKTPITSIKGFTETLLDGAMEDKEALSEFLSIILKESERLQSLVQDLLDLSKIEQQNFTLSIETFEPAKMLGEIETLLKHKADEKGISLHLNVPKDPQYVSGDPYRLKQVFLNLVNNALTYTPEGGSVAINVKPREKDIQIEVADSGIGIQKEEIPRIFERFYRVDKDRSRNSGGTGLGLAIVKHLIEAHEGKIDVTSELGRGTVFTVTLKRAAEKSA | not soluble
MRFAVLGSGSQGNGTLIVSADTCVLVDCGFSLRETERRLLRLGVDPAQLSAILVTHEHADHVHGVGLLSRRYNLPVYLSQGTLRGMRKPVEVAGFVRGGESLQIGALRIDVIAVAHDAQEPTQFVFSDGQRRFGLLTDLGSYCAGVLDGYRGLDALMIEANHCRDRLARGYYPYFLKQRVGGDLGHLNNHQAASLVAELGWQDLQHLVLAHLSSKNNLPQLARQCFVDTLGCDPDWLQLADQDSGLDWRHIALEHHHHHH | not soluble
HSSGLVPRGSHMSQERILDGEEDEINHKIFDLKRTLKDNLPLDRDFIDRLKRYFKDPSDQVLALRELLNEKDLTAEQVELLTKIINEIISGSEKSVNAGINSAIQAKLFGNKMKLEPQLLRACYRGFIMGNISTTDQYIEWLGNFGFNHRHTIVNFVEQSLIVDMDSEKPSCNAYEFGFVLSKLIAIKMIRTSDVIFMKKLESSSLLKDGSLSAEQLLLTLLYIFQYPSESEQILTSVIEVSRASHEDSVVYQTYLSSVNESPHDIFKSESEREIAINILRELVTSAYKKELSR | soluble
MSIPEELWRRFQEGDPRALARALTLVESGHPAGRELLKRVRGKGRAKVVGVTGSPGAGKSTLTDRLILEARKRGERVAVLAVDPSSPFSGGAILGDRIRMMRHHQDPGVYIRSMASRGALGGLAGATVAALSLLEAFGFDRIFVETVGVGQSEVDIARVADTTLLVLTPAAGDAVQAFKAGVMEIADVFAVNKFDLPGGERIVQELKSALELSPPRPGGWRPPIHPTVAASGEGVEALFESLEAHHRHLVEHGLLEAHRLERARFEVESVIQEWGRQRTQGAGALVARVARGELTPEEAALALLGPGPEAEEGAL | soluble
MGISTFFLSVTLFTVNRTCDLLTPPPWYPITVKNTHHTSRHRSIFFILSVMIGKGTREDVQLSLSSLFQGVVMIVGQNPQAPSDLGIEGGERAQGQNAHSVHGPGLQTERGGSQLQMVGHPLRELLEHHHHHH | not soluble
MTVLLSKRAINILLMLLDLEGSITTQELAESFTVSVRTIKYDLEDIRAWFEQHDETLYSKRNKGIWLDLPDSKRLLLKNEIIDVDRFETYPDQKRRVNVLIFQLLSVKGYLTAQQLADELLVSRNTIVSDLEQVERLLQAYDLTLIRQARQGFTISGEESNVRLLMEFITQKELTEYDIYQIMNYVTKTKGAEKIPKIKFGSGTLFQGCYRSALKKMRNLINPLDQNQFDYAEILSITLRVAIAAARMQMAHTIGTYRVLSQKTRFEQRNEVPLLLLQEVFERYDLPLLADEYFYIYSDLFGTHQRQDMVQLTKQVIESVSKELNYPFVNDRQLFTNLFAHLSLRFTKKHLFINEYNPFSEEIKGKHPALFLAIQSACKQLIQRSVLLVNDSFCAYIALHFLAAQERQQQEAKVVRIVYVCSTGLGVTSLIEQKILEEVPNVELAGFASVLNATEVIQAEKPDLVLSIFPIEEMTYPFIKVSPLLTDTDLSLIREEVDKILLGKRQGKGTARSTKSDVIEKNERIQSQDLLVKAYIIYEELKRMFQTKLLSEYQEAFLLHVLLMTHRITFNKQYEEIPCNREVSHERQEEIRQIECLFAKNELPVNHAEISALLNYLEQPKEEEDGTSNGSTGDHSTKC | not soluble
MHHHHHHSSGVDLGTENLYFQSMASSHLNKGIKQVYMSLPQGEKVQAMYIWIDGTGEGLRCKTRTLDSEPKCVEELPEWNFDGSSTLQSEGSNSDMYLVPAAMFRDPFRKDPNKLVLCEVFKYNRRPAETNLRHTCKRIMDMVSNQHPWFGMEQEYTLMGTDGHPFGWPSNGFPGPQGPYYCGVGADRAYGRDIVEAHYRACLYAGVKIAGTNAEVMPAQWEFQIGPCEGISMGDHLWVARFILHRVCEDFGVIATFDPKPIPGNWNGAGCHTNFSTKAMREENGLKYIEEAIEKLSKRHQYHIRAYDPKGGLDNARRLTGFHETSNINDFSAGVANRSASIRIPRTVGQEKKGYFEDRRPSANCDPFSVTEALIRTCLLNETG | soluble
GSSGSSGMSSMTQNLREVMKVMFKVPGFDRVLEKVTLVSAAPEKLICEMKVEEQHTNKLGTLHGGLTATLVDSISTMALMCTERGAPGVSVDMNITYMSPAKIGEEIVITAHILKQGKTLAFASVDLTNKTTGKLIAQGRHTKHLGNSGPSSG | soluble
FFETIHPDDRERIRSEIETAGDSGEPNSVEFRFVEPDGTVVWVVGQAVPVTDDEGNLTERVVGIATDITDLKQR | not soluble
MGSDKIHHHHHHVPRVRTVKEDHRAGVWCARGMTGLLRRLHAVLDEFNAAYPWDHNAYYHRWILRQLPPRFGRALDAGSGSGDLARLLAGRADRVCGIDIDPVITARARELTDPAAPVVFTVGDVLTDTPAGPYDVVTCVAAVHHMPLAEALTCFRDLLAPGGTLVVVGLYRAHDPIDVLLDGVSVVLNPLIGWVRHRGRRAPRPVSMTAVTTPATMTFAEIVAEARRVLPRARLRRRLLWRYTLVWRKP | not soluble
FDAVPDLIAILDTEYRIVRANRAMAARLGITPEECVGLTCYRVIHGTDEPPSFCPYRQLLKDGIEHTEEVREDSLGGDFILSVLPLHDSKGKIIGCTHFARDIN | not soluble
MGSDKIHHHHHHMSCSHEHESLLVTSPNKSAQAVADALEKHPITFSLPQQFYSDADVFQVEMEQIFYKEWLFVGITGEIPDNGNFITLDIGDNPITVIRDQNGEVRAFHNTCRHRGSKICLVKQGKVPKLVCPYHQWTYELDGNLLFAGTEMGDDFDKNDYGLHKVNCRVAGGYIFVSLSENPTNIDGFFDDLTHYLEPYDLDNCKVAVESTLIEDANWKLVIENNRECYHCSGNHPELLNTLLEWDDTEDPRASDEFKAQVAAKQAMWEAEGIPYKHVSHGHGLRNRIVRMPLLEGTVSMTIDGKAGCKKLMGRIKNPDLGSMRILHLPNSWSHAMGDHLIAFQVIPLGAQKTQVTTKWIVHKDAVEGVDYDVAQLRQVWDATNVQDRTLAENNQKGINSKAYQPGPYSTTFEFGVVNFIDWFSHTMQSNIKASAEKS | not soluble
GHMAESQALSDDIGFLLSRVGGMVLGAVNKALVPTGLRVRSYSVLVLACEQAEGVNQRGVAATMGLDPSQIVGLVDELEERGLVVRTLDPSDRRNKLIAATEEGRRLRDDAKARVDAAHGRYFEGIPDTVVNQMRDTLQSIAFPTFVEGS | soluble
GSHMDKTFCVVVQNRIKEGYRRAGFSFHLGDNSLAAVSESQLAQLKADPRLVVQITETGSQEGGEGLSKEPAGSDEQKQLRADPPSTDLNTFTVEQLKAQLTERGITFKQSATKAELIALFAPADGEKSEA | soluble
